According to PMC11258689, “A Snake Venom Peptide and Its Derivatives Prevent Aβ42 Aggregation and Eliminate Toxic Aβ42 Aggregates In Vitro” (ACS Chemical Neuroscience, 2024):
No end group written: not given here.

Tests used:
Settings in all cases: both partners purified
amyloid-β (1–42) [1] = molecular target: T1, amyloid-β (1–42) (UniProt P05067 672-713); experiment: SPR; Biacore T200; CDP-1 immobilised by amine coupling (1916.5 RU); Aβ42 as analyte 1.85 to 0.02 μM; 10 mM HEPES + 50 mM NaCl + 0.05% Tween 20, 25 °C; multicycle; methods: 1:1 kinetic fit with global Rmax (the table's head says steady-state fitting)
T1 construct: also called Aβ42; Aβ (1–42); source: bought: Bachem (Bubendorf, Switzerland); suspended in HFIP, lyophilized

amyloid-β (1–42) [2] = molecular target: T1, amyloid-β (1–42); experiment: SPR; Biacore T200; Aβ42 immobilised on a CM-5 chip by amine coupling (900 RU); peptides as analytes 50 to 0.02 μM; 10 mM HEPES + 50 mM NaCl + 0.05% Tween 20, 25 °C, 30 μL/min; multicycle; steady-state affinity model
amyloid-β (1–42) [3] = molecular target: T1, amyloid-β (1–42); experiment: as above; remark: listed apart in the source

B1: crotamine derivative peptide CDP-1 (peptide)
peptide: KMDCRWRWKCCKK
modifications: acetylated at the N-terminus; methylated at the C-terminus
notes: crotamine of Crotalus durissus terrificus venom, Lys27 to Lys39; […]; L-amino acids; For SPR this peptide was immobilised by amine coupling (1916.5 RU); also called crotamine (Lys27–Lys39); mother L-peptide CDP-1; source: synthetic peptide (Genscript, purity >95%)
Kd (amyloid-β (1–42) [1]): 0.41 µM

B2: crotamine derivative peptide CDP-6 (peptide)
peptide: Ac-KMDSRWRWKCSKK
modifications: not fully specified (C-terminus); also: methylated at the C-terminus
notes: positions worked out from Lys27–Lys39; […]; L-amino acids; source: synthetic peptide (Genscript, purity >95%)
Kd (amyloid-β (1–42) [2]): 26.4 µM

B3: crotamine derivative peptide CDP-2 (peptide)
peptide: Ac-KMDSRWRWKSSKK
modifications: not fully specified (C-terminus); also: methylated at the C-terminus
notes: […]; L-amino acids; source: synthetic peptide (Genscript, purity >95%)
Kd (amyloid-β (1–42) [3]): 3.25 µM
